This test has as its target T1, microsomal triglyceride transfer protein (MTTP), endogenous, in mouse intestinal epithelial cell lysates (mouse, UniProt O08601 22-894, limits assumed).
T1 construct: Endogenous protein in IEC or intestinal cell lysates of control, PRAP1-/- or E85V mice
T1 sequence (looked up): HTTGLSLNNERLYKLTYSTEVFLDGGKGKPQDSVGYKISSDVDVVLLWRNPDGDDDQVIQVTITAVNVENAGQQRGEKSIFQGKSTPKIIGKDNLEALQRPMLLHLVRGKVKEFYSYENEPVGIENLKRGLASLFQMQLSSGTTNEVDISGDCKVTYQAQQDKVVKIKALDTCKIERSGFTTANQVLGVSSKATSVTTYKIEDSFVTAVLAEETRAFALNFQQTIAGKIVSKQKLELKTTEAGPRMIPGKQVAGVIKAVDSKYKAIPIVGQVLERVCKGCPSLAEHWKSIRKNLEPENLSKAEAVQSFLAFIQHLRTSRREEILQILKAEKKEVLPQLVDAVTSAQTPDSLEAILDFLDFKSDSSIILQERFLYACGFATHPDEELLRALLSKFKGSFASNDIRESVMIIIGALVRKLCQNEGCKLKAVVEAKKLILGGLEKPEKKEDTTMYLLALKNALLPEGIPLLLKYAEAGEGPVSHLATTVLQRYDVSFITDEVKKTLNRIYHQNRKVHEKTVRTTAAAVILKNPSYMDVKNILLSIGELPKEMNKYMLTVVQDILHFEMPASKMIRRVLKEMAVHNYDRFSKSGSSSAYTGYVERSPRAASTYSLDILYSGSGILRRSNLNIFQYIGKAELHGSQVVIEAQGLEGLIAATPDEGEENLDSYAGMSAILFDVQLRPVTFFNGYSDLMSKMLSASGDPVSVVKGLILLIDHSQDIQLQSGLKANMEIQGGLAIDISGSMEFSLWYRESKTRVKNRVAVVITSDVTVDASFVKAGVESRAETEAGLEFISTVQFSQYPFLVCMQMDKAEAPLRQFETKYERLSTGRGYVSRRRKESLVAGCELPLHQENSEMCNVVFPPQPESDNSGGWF
The test is described as follows: co-immunoprecipitation from IEC lysates with PRAP1- or MTTP-specific antibody, immunoblot. The procedure:
FIGS. 2A to 2H depict that PRAP1 formed a complex with microsomal triglyceride transfer protein (MTTP) and was involved in MTTP-mediated lipid transfer according to Example 2 of the present disclosure. FIG. 2A: Total intestinal cell lysates from control (WT), PRAP1^{-/-} (KO) or the E85V mutant mice (E85V) were immunoprecipitated with MTTP- or PRAP1-specific antibody, and the immune complexes (lanes 4-6) along with 1/50 input lysates as indicated were analyzed by immunoblotting using MTTP or PRAP1 antibodies. FIGS. 2B and 2C: Recombinant PRAP1 (rPRAR1, i.e., PRAP1ΔN20; designated as “rWT” in FIGS. 2B and 2C) stimulated the triglyceride (TG; FIG. 2B) and phospholipid (FIG. 2C) transfer activity of MTTP in the intestinal epithelial cells (IECs) purified from PRAP1^{-/-} mice. FIG. 2D: Immunoblotting analysis of MTTP expression in the intestinal cell lysates of control (PRAP1^{+/+}) or PRAP1^{-/-} mice. FIGS. 2E and 2F: MTTP-mediated transfer of TG (FIG. 2E) or phospholipid (FIG. 2F) was determined in PRAP1-deficient (PRAP1^{-/-}) IEC homogenates that had been pre-incubated with 10 μg of recombinant WT PRAP1 or the indicated mutant of PRAP1 (all without N-terminal 20 aa). […] N=3-4 for each panel. *, p<0.05; **, p<0.01; ***, p<0.001; n.s., p>0.05. FIGS. 2B, 2C, 2G and 2H: compared to the activity of PRAP1^{+/+} (bar 1). FIGS. 2E and 2F: compared to the activity in PRAP^{-/-} (bar 2). […]
(Immunoblotting shows a protein as a band on a membrane.)

We go through one molecule from patent US20230069835A1 (ACADEMIA SINICA, published 2023).

B1: endogenous E85V mutant PRAP1 in intestinal epithelial cells of E85V knock-in mice (other)
chain: APAHQVPVKTKGKHVFPEQETEKVWDTRALEPLEKDNQLGPLLPEPKQKPAAAEEKRPDAMTWVVTEDILSHLRSPLQGPELDLDSIDHPMSDDVQDEEVPQSRPILYRQVLQGPEEDLDHLAHSMEDS
notes: Endogenous protein in lysates of PRAP1 E85V/E85V mice; The 20-aa signal peptide is called putative; also called E85V mutant of PRAP1; mouse E85V mutant PRAP1
Take B1: the binding result is listed as “no binding”.
